Consider 132 substances from the supplement of paper PMC12042874.

± gives the uncertainty stated by the source.

This data set can be described thus: amyloid nucleation score (Sup35N fusion, yeast selection) (log enrichment); library NNK3; higher = more nucleation; inactive = no reads after selection. The gist of the method: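 After 24 hours of induction with 100 μM copper sulfate, psi-negative yeast expressing peptides of 20 random codons fused to Sup35N were grown for 7 days at 30°C on medium lacking adenine and uracil. Input and output plasmid inserts were sequenced with Illumina, and sequences with under 100 input reads were discarded. Scores for nucleation are the DiMSum log enrichment of output over input reads, centred on the mode score of non-aggregating sequences.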
For TEPRMLGMCPAVVERMRVEG, the amyloid nucleation score entry was “inactive”.

Take TEYVMSQNHLKQW: the amyloid nucleation score entry is “inactive”.

On to TFAFYLTILMSMFDRYFTWP, for which the amyloid nucleation score result was “inactive”.

On to TFCGFKP, for which the amyloid nucleation score result was “inactive”.

TFDFPHIRRLEFKFAI: the amyloid nucleation score result is “inactive”.

Consider TFKPDQYRFVHEYSTMRVLM, for which the amyloid nucleation score entry was “inactive”.

As for TFLYTFWVLMACSELV, the amyloid nucleation score entry was “inactive”.

In the case of TFRICADMCCTGVR, the amyloid nucleation score was determined as 1.45 ± 0.11.

For TFRVNMCNPLMLGYVLFWLD, the amyloid nucleation score result was “inactive”.

Turning to TFYDNLSDRLFSWS, the amyloid nucleation score result is “inactive”.

Turning to TGFLGWDACGALRIFLTVRW, the amyloid nucleation score entry was “inactive”.

On to TGHSQSLVVLTCWCVLFHAR, for which the amyloid nucleation score entry is “inactive”.

For the substance TGKYRAVVLAC, the amyloid nucleation score result is “inactive”.

Turning to TGMNNFMKCLGYMSAHVRLI, the amyloid nucleation score result was “inactive”.

For TGPMGI, the amyloid nucleation score result is “inactive”.

As for TGQLSSQPIIQISREPIAFT, the amyloid nucleation score entry is “inactive”.

Substance TGSLWRNHCLVVPQVRYGRK displayed an amyloid nucleation score of -0.017 ± 0.5.

In the case of TGSVFVKDGTLWPTCVDLIG, the amyloid nucleation score result was “inactive”.

Regarding TGTFDRWDPVTAGLPTGLGE, the amyloid nucleation score entry is “inactive”.

With TGVKQCSTFTVFIFAGPVEI, the amyloid nucleation score turned out to be 1.74 ± 0.1.

Turning to TGYYWFLFWNMWDWHVCGSS, the amyloid nucleation score result was “inactive”.

With THNVSKKWLVGVMCINSGRH, the amyloid nucleation score came to 1.59 ± 0.099.

Turning to TIATLRF, the amyloid nucleation score result is “inactive”.

With TICCSDLVVEDHG, the amyloid nucleation score entry is “inactive”.

As to TICPTFPVGGMNISNGSYTM, the amyloid nucleation score entry was “inactive”.

TIEIGSLYTITM gave an amyloid nucleation score of -0.251 ± 0.45.

Regarding TIFEAA, the amyloid nucleation score entry was “inactive”.

Consider TIFFMYWLSPGFSPPI, for which the amyloid nucleation score worked out at 0.148 ± 0.39.

For the substance TIFKRSPACYYNGIHLWVTF, the amyloid nucleation score result is “inactive”.

With TIGDACFVGKEAWAFANWEY, the amyloid nucleation score result is “inactive”.

Regarding TIIFRSYVELVDELWLDAAL, the amyloid nucleation score entry is “inactive”.

TILGDFVFVFILKVCFTYHR showed an amyloid nucleation score of -0.806 ± 1.3.

For TISFGMMHLAIDWVIVN, the amyloid nucleation score entry is “inactive”.

In the case of TITLFSSWGSV, the amyloid nucleation score came out at 0.612 ± 0.22.

For the substance TIVRY, the amyloid nucleation score stood at 1.1 ± 0.21.

Consider TKAYGCIHTDRRDSQLKFSA, for which the amyloid nucleation score result is “inactive”.

The substance TKCLLFFNRGCR gave an amyloid nucleation score of 1.1 ± 0.14.

Turning to TKIEVNS, the amyloid nucleation score result is “inactive”.

Substance TKLWFCNFCYSLDAGIGKCV registered an amyloid nucleation score of 2.37 ± 0.077.

Consider TKVFS, for which the amyloid nucleation score result is “inactive”.

The substance TLAIGLIDEFRLHA came in with an amyloid nucleation score of 1.09 ± 0.13.

Regarding TLDFGF, the amyloid nucleation score result is “inactive”.

With TLIQFSLMCVYFSDFLPKAF, the amyloid nucleation score entry was “inactive”.

Regarding TLLFDPMLNA, the amyloid nucleation score entry is “inactive”.

Consider TLNMEFIQFTRSFGKSISPC, for which the amyloid nucleation score entry was “inactive”.

As for TLSHIGGIEGFINGCLSVGP, the amyloid nucleation score result is “inactive”.

Take TLSMSWDLTKHFAVVTESRG: the amyloid nucleation score entry was “inactive”.

For the substance TLSRFPLGNCF, the amyloid nucleation score entry was “inactive”.

As to TLSYVCTNAGGSVFMTCLFF, the amyloid nucleation score was -0.104 ± 0.58.

In the case of TLTSYEKIPSMSLSG, the amyloid nucleation score result was “inactive”.

In turn, TLVGTFYSMQRSDRIWR returned an amyloid nucleation score of 0.475 ± 0.69.

Turning to TLYVIGLPFDLALMGI, the amyloid nucleation score result is “inactive”.

As to TMDTYSVPPHNFGMLCYGL, the amyloid nucleation score entry is “inactive”.

TMIFYYRYRLVCDGLFFCGT: the amyloid nucleation score is 0.034 ± 0.48.

In the case of TMLVFGIVNTLVVDNLRSSI, the amyloid nucleation score is 2.01 ± 0.094.

On to TMMACEANWYRSKNIEFVYA, for which the amyloid nucleation score entry was “inactive”.

On to TMYSLD, for which the amyloid nucleation score entry is “inactive”.

As to TNANRIGMGYDMNNYSTHYR, the amyloid nucleation score entry is “inactive”.

As for TNCCTCVMEASGNEGIGTLN, the amyloid nucleation score stood at 0.367 ± 0.23.

As for TNFAYMQREGS, the amyloid nucleation score result was “inactive”.

With TNITWYTRVLNGLYYTM, the amyloid nucleation score result is “inactive”.

On to TNKASLFSPAEHIYGKS, for which the amyloid nucleation score result is “inactive”.

Take TNLLRTGNASSWMFKRGVEC: the amyloid nucleation score result was “inactive”.

As for TNNINALMLAIPINEYVVGH, the amyloid nucleation score result is “inactive”.

As to TNNQNSDRFGVTVPSLTFVR, the amyloid nucleation score entry was “inactive”.

Regarding TNPMYK, the amyloid nucleation score entry was “inactive”.

Take TNPTVYWDRGMVGCKKLRAH: the amyloid nucleation score entry is “inactive”.

In turn, TNRFIFPFLNVTHAVLFIFT showed an amyloid nucleation score of 1.02 ± 0.19.

Regarding TNTYF, the amyloid nucleation score entry was “inactive”.

For TNVSPLTPNT, the amyloid nucleation score entry is “inactive”.

As to TPEVISSV, the amyloid nucleation score entry was “inactive”.

As for TPGSYLGYCIPRFIGLQYDP, the amyloid nucleation score entry is “inactive”.

Take TPLESGLSI: the amyloid nucleation score entry is “inactive”.

In the case of TPLFHWKNQVSRSFLVWNDL, the amyloid nucleation score result is “inactive”.

Take TPLGLEWYSSREWGISNLWT: the amyloid nucleation score entry was “inactive”.

As to TPSSCSTLCQTDMQDQWRVG, the amyloid nucleation score entry is “inactive”.

As for TPYGRIFWADDIFNSVAICL, the amyloid nucleation score entry was “inactive”.

On to TQDIKLFHRMDFQLSIKMNS, for which the amyloid nucleation score entry was “inactive”.

Consider TQLLMEFSTVSALDITPCDG, for which the amyloid nucleation score entry is “inactive”.

As for TQNGGVNVIRFYLCDFLSGL, the amyloid nucleation score is 2.87 ± 0.067.

Regarding TRFLATECITSDEVVYWVTM, the amyloid nucleation score entry was “inactive”.

With TRLDGHTYMFTL, the amyloid nucleation score result is “inactive”.

In the case of TRLRSTPVLVVNW, the amyloid nucleation score result is “inactive”.

Take TRMSGRHLCVITACLLTLNC: the amyloid nucleation score worked out at 0.576 ± 0.15.

On to TRSGST, for which the amyloid nucleation score entry is “inactive”.

In turn, TRVDLLYRSRNDGIVFFSRF gave an amyloid nucleation score of 0.773 ± 0.2.

Consider TRVFTGKQPENDRET, for which the amyloid nucleation score entry is “inactive”.

With TRWQRCSAIPPVGEA, the amyloid nucleation score entry was “inactive”.

Consider TSDQSESISLFRYI, for which the amyloid nucleation score entry was “inactive”.

Substance TSFGYNLGLRRCSYRMTAEW came in with an amyloid nucleation score of 1.44 ± 0.13.

TSGQSVVSSRTHCVIRCRRR: the amyloid nucleation score entry was “inactive”.

As to TSLLAELLVWWE, the amyloid nucleation score entry is “inactive”.

In the case of TSLSTSKVLDASLRMDQLST, the amyloid nucleation score entry is “inactive”.

Turning to TSMSGDVHVVYVVVEHVKPP, the amyloid nucleation score came out at 2.46 ± 0.089.

Turning to TSNRGDWVHFTVYSFYESTM, the amyloid nucleation score result was “inactive”.

Turning to TSRLFHKFLGYAPSRTNSSL, the amyloid nucleation score entry is “inactive”.

For TSTYSFCTRVWYPASIIFGR, the amyloid nucleation score entry was “inactive”.

With TSWTGWVRCHIGSSNISALT, the amyloid nucleation score result is “inactive”.

With TSYKYDSNR, the amyloid nucleation score entry was “inactive”.

In the case of TSYSKEVFQLLKWVGNLIRG, the amyloid nucleation score result is “inactive”.

For the substance TTELVF, the amyloid nucleation score result is “inactive”.

As to TTEPDRATLSYR, the amyloid nucleation score result was “inactive”.

For the substance TTFFGCSFGLCRAIIGLDNV, the amyloid nucleation score amounted to 1.34 ± 0.076.

For TTKEVESNSAHCPKSSLACT, the amyloid nucleation score result is “inactive”.

With TTRIVSNCCMLIVL, the amyloid nucleation score amounted to 1.29 ± 0.12.

With TVAEMNIMLC, the amyloid nucleation score was found to be 2.37 ± 0.076.

For TVFSCYSWELEMMLWDGSYM, the amyloid nucleation score result is “inactive”.

Turning to TVGQQWRPSRKLSSSSAIRN, the amyloid nucleation score result was “inactive”.

Take TVGTIPFWVALPSTSLNR: the amyloid nucleation score result is “inactive”.

TVHYSLIRWTSGNCGLGYW gave an amyloid nucleation score of 0.841 ± 0.17.

Consider TVIFWWLKGNRPVSMIDSDI, for which the amyloid nucleation score entry is “inactive”.

As to TVLGELKVLFRYWFHIIWYF, the amyloid nucleation score entry is “inactive”.

With TVLYFA, the amyloid nucleation score entry is “inactive”.

Consider TVRDELSSVFL, for which the amyloid nucleation score entry is “inactive”.

As for TVRFLVHYITAKGKSVGITK, the amyloid nucleation score result was “inactive”.

On to TVRKSSIGGCVASYPFEHNK, for which the amyloid nucleation score entry is “inactive”.

For TVSKANWVLLEFLTFCGMI, the amyloid nucleation score was found to be 1.74 ± 0.096.

With TVSYSQPVWSMDFIVGYLGV, the amyloid nucleation score entry was “inactive”.

For TVTFYNCIVGCVSNWVSVQG, the amyloid nucleation score was found to be 1.77 ± 0.068.

For TVYEA, the amyloid nucleation score result is “inactive”.

Take TVYSGWCTREVRICEPMNRG: the amyloid nucleation score entry was “inactive”.

On to TWGKRFYSGIMVQCIREEWA, for which the amyloid nucleation score is -0.741 ± 1.7.

In the case of TWGPHLIPLFNNL, the amyloid nucleation score entry is “inactive”.

In the case of TWQFSGYWCSLYMSA, the amyloid nucleation score came out at 1.67 ± 0.12.

Turning to TWRFVPRPLLVCMLYRYLCK, the amyloid nucleation score entry is “inactive”.

As to TWSRRGSGAPACVVVTWVPA, the amyloid nucleation score result was “inactive”.

Consider TWWSEGIYELKYGLFWLGVV, for which the amyloid nucleation score entry is “inactive”.

As to TYAYELRIFSDYSHGLGFDP, the amyloid nucleation score is -0.659 ± 0.88.

As to TYEVPGPPSQRSLSY, the amyloid nucleation score result is “inactive”.

As for TYFILKETATDLN, the amyloid nucleation score entry was “inactive”.

Turning to TYKIIRYFLNLICSFRGPMP, the amyloid nucleation score result is “inactive”.

For TYLEMDIAPAMRLCS, the amyloid nucleation score result was “inactive”.
